These are literature values, as cited in PMC10814857, “Functional Classification and Interaction Selectivity Landscape of the Human SH3 Domain Superfamily” (Cells, 2024).

The Kd is the constant that tells how readily two partners part at equilibrium.

The target of one data set is PACSIN1 SH3 domain. Further details: method as in ref [60] (a number printed in a supplementary file, which may have a reference list of its own: not looked up in the article's list). Particulars: PACSIN1, ITC, Table S4; ref [60].
Data set [1] concerns the target SH3GL2 (Endophilin-A1) SH3 domain. To be noted: ITC, Table S4, ref [60]. How it is done:
page 6: […] […] […] PAK2 […] PXXXPR PXXXPR 1.05 ITC [34] TRSVI ITSN1-2 Synthetic […] Exceptional [W/F][R/W]xSx[A/ 53 ITC [29] peptide G][F/Y][L/V]xGP[ W/L] NCK1-2 N-WASP GP[…] … 147 HSQC [64] VA[…] 199 PLCG1 SOS1 AAPV[…] … 0.20mM SPR [75] AADS[…] 0.40mM AAES[…] 0.70mM AAIA[…] 0.28mM BAIAP2L1 EspFUR45 IPP[…] … 0.5 nM ITC [76] (IRTKS) 9 SORBS2- Synthetic […] Exceptional XRXGXAYLXYVX 38 ITC [29] 1 peptide Synthetic RL[…](L/P) ...
A general note: In ITC the heat of successive injections is recorded.

The target of data set [2] is bPIX (ARHGEF7) SH3 domain. Further details: method as in 3 sources, one per row (each row's own in cited_ref): ref [33] (a number printed in a supplementary file, which may have a reference list of its own: not looked up in the article's list) ||| ref [60] (a number printed in a supplementary file, which may have a reference list of its own: not looked up in the article's list) ||| ref [34] (a number printed in a supplementary file, which may have a reference list of its own: not looked up in the article's list). To be noted: ITC, Table S4, ref [60].

B1: PEDAGAGENRRVSGNNSPSLSNGGFKPSRPPRPSRPPPPTPRRPASVNGSPSATSESDGSSTG (peptide)
chain: PEDAGAGENRRVSGNNSPSLSNGGFKPSRPPRPSRPPPPTPRRPASVNGSPSATSESDGSSTG
notes: published Itch proline-rich peptide
Take B1: the Kd at PACSIN1 SH3 domain was 4.33 µM; in data set [1] it was 0.457 µM; in data set [2], 1.44 µM.
